The results in this text go back to PMC5154475, “Dual Therapeutic Action of a Neutralizing Anti-FGF2 Aptamer in Bone Disease and Bone Cancer Pain” (Molecular Therapy, 2016).

This experiment concerns the target T1, mouse recombinant FGF R3(IIIc)-Fc (mouse, UniProt Q61851 21-369).
T1 construct: FGF receptor 3, (IIIc) form, mouse, extracellular domain fused to IgG-Fc portion; also called FGFR3 (murine); source: bought: R&D Systems
T1 sequence (looked up): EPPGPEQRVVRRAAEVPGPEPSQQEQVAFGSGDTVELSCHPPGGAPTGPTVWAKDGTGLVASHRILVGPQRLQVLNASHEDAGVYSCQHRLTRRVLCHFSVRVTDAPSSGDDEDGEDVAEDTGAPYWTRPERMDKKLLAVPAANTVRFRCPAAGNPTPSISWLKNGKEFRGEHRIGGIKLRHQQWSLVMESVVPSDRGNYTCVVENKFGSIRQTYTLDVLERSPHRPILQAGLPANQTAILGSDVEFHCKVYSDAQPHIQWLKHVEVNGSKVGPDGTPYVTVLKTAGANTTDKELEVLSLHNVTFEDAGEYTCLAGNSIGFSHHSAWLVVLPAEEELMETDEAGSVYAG
The experiment in a line: SPR; Biacore 2000; FGFR/Fc fusion proteins immobilised onto a CM5 sensor chip via prebound protein A (1,000 RUs); FGF2 injected with or without the RNA aptamer APT-F2; for FGFR1: receptor 100 nmol/l, FGF2 100 nmol/l, heparin 100 nmol/l, APT-F2 150 nmol/l. The note with it: both partners purified. (In SPR one partner is held on a chip, and binding of the other changes the refractive index at the surface.)

B1: murine FGF2 (ligand, UniProt P15655 10-154, looked up)
chain: PALPEDGGAAFPPGHFKDPKRLYCKNGGFFLRIHPDGRVDGVREKSDPHVKLQLQAEERGVVSIKGVCANRYLAMKEDGRLLASKCVTEECFFFERLESNNYNTYRSRKYSSWYVALKRTGQYKLGSKTGPGQKAILFLPMSAKS
notes: Fibroblast growth factor 2, mouse, recombinant; also called mouse FGF2; source: bought: PEPROTECH
On to B1, for which the binding result was “binds”.
